This note sets out measurements from publication PMC2783380.

For this assay, the target named is APOBEC3G (human), Q9HC16. The assay can be described thus: AUC. Particulars: remark: other sources report otherwise.

B1: APOBEC3G, Q9HC16 1-384 (enzyme)
chain: MKPHFRNTVERMYRDTFSYNFYNRPILSRRNTVWLCYEVKTKGPSRPPLDAKIFRGQVYSELKYHPEMRFFHWFSKWRKLHRDQEYEVTWYISWSPCTKCTRDMATFLAEDPKVTLTIFVARLYYFWDPDYQEALRSLCQKRDGPRATMKIMNYDEFQHCWSKFVYSQRELFEPWNNLPKYYILLHIMLGEILRHSMDPPTFTFNFNNEPWVRGRHETYLCYEVERMHNDTWVLLNQRRGFLCNQAPHKHGFLEGRHAELCFLDVIPFWKLDLDQDYRVTCFTSWSPCFSCAQEMAKFISKNKHVSLCIFTARIYDDQGRCQEGLRTLAEAGAKISIMTYSEFKHCWDTFVDHQGCPFQPWDGLDEHSQDLSGRLRAILQNQEN
One may read the stoichiometry N as the number of molecules, sites or subunits per partner or assembly. Regarding B1, the stoichiometry N was 4.
